Legend:
[1] = biological target: full-length GST-yKu70 (S. cerevisiae) (UniProt P32807); test: MST
[2] = biological target: full-length GST-Rfa1 (S. cerevisiae) (UniProt P22336); test: MST
Sequence of UniProt P22336 (P22336 whole entry): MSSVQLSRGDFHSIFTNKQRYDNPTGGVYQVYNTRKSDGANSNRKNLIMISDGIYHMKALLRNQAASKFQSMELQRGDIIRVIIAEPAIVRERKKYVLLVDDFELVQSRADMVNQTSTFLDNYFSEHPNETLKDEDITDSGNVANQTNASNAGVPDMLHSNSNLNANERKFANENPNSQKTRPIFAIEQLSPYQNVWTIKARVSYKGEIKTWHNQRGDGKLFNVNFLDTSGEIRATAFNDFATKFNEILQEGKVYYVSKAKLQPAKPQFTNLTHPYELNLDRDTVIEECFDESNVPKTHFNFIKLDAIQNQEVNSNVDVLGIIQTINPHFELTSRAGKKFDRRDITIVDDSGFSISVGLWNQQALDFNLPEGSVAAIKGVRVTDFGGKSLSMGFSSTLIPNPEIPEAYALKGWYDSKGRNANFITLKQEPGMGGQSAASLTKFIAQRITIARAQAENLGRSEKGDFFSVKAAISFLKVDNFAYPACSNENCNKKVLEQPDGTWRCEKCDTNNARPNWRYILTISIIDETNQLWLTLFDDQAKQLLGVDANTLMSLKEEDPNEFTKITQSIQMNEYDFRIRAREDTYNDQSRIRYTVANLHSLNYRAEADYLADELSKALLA

Sequence of UniProt P32807 (P32807 whole entry): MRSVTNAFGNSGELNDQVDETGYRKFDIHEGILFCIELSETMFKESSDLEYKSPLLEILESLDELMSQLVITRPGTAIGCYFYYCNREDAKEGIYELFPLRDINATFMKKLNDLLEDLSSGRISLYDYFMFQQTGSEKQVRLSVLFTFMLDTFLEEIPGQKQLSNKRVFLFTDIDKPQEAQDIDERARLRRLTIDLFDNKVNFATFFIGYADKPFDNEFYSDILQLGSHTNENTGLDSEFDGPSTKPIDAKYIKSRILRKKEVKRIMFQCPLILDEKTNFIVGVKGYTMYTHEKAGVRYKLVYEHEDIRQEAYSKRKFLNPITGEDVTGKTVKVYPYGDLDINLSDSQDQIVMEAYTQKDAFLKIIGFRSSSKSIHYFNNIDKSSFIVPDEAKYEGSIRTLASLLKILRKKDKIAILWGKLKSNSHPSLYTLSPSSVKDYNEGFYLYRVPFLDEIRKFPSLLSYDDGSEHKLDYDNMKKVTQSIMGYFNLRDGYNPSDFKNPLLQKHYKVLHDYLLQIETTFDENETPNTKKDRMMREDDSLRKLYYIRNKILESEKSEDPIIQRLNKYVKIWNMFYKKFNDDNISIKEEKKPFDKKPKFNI

Kd [1] [nM] | Kd [2] [nM] | Substance
1200 |  | yeast Y236F^me2 nucleosomes (from UniProt P61830 1-136) (complex)
 | 1000 | yeast Y149F^me3 nucleosomes (from UniProt P61830 1-136) (complex)
1200 | 1000 | native chicken erythrocyte nucleosomes (complex)

Source: doi:10.1101/2023.10.18.562911
